The assay has as its target CTD-HAP40 complex bearing a C-terminal biotin tag (UniProt P23610). As to the kind of experiment: BLI.
Chain of UniProt P23610 (P23610 whole entry, looked up, one chain of several): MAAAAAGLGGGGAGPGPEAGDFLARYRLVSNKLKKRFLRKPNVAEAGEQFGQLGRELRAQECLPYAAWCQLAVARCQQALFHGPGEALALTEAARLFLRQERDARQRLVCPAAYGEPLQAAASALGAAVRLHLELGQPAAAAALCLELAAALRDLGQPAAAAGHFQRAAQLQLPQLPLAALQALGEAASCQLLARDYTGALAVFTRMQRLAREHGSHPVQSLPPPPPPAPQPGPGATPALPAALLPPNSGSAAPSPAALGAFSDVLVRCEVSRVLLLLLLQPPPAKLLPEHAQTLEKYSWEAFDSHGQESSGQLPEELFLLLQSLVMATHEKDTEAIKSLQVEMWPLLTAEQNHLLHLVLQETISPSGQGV

As for “HTT N-terminal HEAT and bridge domain construct (NTD, aa. 97-2069) (domain or fragment)”, the Kd turned out to be 10 nM.

The record behind these values is publication doi:10.1101/2022.11.21.516512.
